Experimental findings from patent publication US20160187342, “DNA Aptamer Specifically Binding to EN2 (Engrailed-2) and Use Thereof” (POSTECH ACADEMY-INDUSTRY FOUNDATION, published 2016) are described below.

The term Kd denotes the free concentration of one partner at which half of the binding sites on the other are occupied at equilibrium, for simple one-to-one binding. Higher therefore signals a looser complex.

In data set [1] the target is T1, EN2 (Engrailed-2) (UniProt P19622 P19622:1-333).
T1 sequence: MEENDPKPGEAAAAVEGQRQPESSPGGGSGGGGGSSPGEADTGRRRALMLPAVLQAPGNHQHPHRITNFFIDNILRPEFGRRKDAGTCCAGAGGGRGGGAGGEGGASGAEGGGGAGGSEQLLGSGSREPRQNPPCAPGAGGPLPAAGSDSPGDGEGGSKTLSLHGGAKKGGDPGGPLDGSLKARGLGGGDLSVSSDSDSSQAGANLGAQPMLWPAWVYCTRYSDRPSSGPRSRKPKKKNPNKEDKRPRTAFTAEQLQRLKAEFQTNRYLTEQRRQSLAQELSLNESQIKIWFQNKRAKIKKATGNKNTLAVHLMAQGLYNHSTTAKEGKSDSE
Kind of data set: FAM fluorescence of protein-bound aptamer. As to conditions: tags: (His)6-tag, pET28a, E. coli BL21(DE3), hairpin. As for the experimental part:
(§1) Then, in order to compare binding strengths between the EN2 protein and each of the DNA aptamers, a dissociation constant (Kd) between the EN2 protein and each of the DNA aptamers was measured. In this case, fluorescein amidite (FAM) was attached to the DNA aptamer as a marker, and an amount of the DNA aptamer bound to the protein was measured according to a fluorescent signal of FAM.

For data set [2], the target named is TATA box binding protein (TBP) (UniProt P20226 P20226:1-339). Kind of data set: impedance biosensor on gold, 10 pM protein in artificial urine. The note with it: label: FAM (Kd assay); poly A linker to gold surface (biosensor); hairpin, loop 8 bases, stem 14 bp. As for the experimental part:
In order to identify selective binding of the DNA aptamer, a binding specificity with respect to several protein samples was identified. Each protein was mixed in an artificial urine medium to have a concentration of 10 pM, and then it was identified whether binding to the DNA aptamer was performed.

In data set [3] the target is T1, EN2 (Engrailed-2). Kind of data set: FAM fluorescence of protein-bound aptamer; printed as hDNA5. The note with it: tags: (His)6-tag, pET28a, E. coli BL21(DE3); label: FAM; hairpin, loop 8 bases, stem 10 bp. The protocol: as §1
Data set [4] has as its target T1, EN2 (Engrailed-2). Kind of data set: FAM fluorescence; second strand printed 3'-5' in Table 1; EMSA, SPR and SYBR Green I displacement also showed binding of TAATTA dsDNA. As to conditions: tags: (His)6-tag, pET28a, E. coli BL21(DE3); label: FAM. (In general: A gel shift assay detects complexes by their altered migration in electrophoresis.)

TATA box binding protein (TBP), sequence (P20226 whole entry, one chain of several): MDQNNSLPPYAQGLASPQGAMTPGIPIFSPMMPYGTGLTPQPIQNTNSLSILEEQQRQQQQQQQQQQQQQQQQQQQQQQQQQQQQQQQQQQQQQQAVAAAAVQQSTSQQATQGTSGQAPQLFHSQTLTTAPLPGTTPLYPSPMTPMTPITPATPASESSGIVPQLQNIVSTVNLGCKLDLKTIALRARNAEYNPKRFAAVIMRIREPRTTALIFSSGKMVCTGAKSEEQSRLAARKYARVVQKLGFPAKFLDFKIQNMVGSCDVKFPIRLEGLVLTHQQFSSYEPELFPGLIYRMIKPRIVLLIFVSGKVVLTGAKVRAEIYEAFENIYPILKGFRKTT

In the data set with EN2 (Engrailed-2) [1] (label: FAM, loop 10 bases, stem 14 bp), CGTGTAATTACCTCCAGACCAGGAGAGGTAATTACACG (structured_DNA) [hpDNA4] yielded a Kd of 88.8 nM.

In turn, CGTGTAATTACCTCCAGAAGGAGAGGTAATTACACG (structured_DNA) [hpDNA3] showed a Kd with EN2 (Engrailed-2) [1] (label: FAM (Kd assay), poly A linker to gold surface (biosensor), loop 8 bases, stem 14 bp) of 66.3 nM. The binding result in data set [2] is listed as “no binding”.

For CGTGTAATTACCTCCAGGGAGAGGTAATTACACG (structured_DNA) [hpDNA2], in the data set with EN2 (Engrailed-2) [1] (label: FAM, loop 6 bases, stem 14 bp), the affinity, expressed as Kd, was 98.8 nM.

For CGTAATTACCCAGAAGGAGGTAATTACG (structured_DNA) [hpDNA5], in the data set with EN2 (Engrailed-2) [3], the Kd was 68.8 nM.

In the data set with EN2 (Engrailed-2) [1] (label: FAM, loop 4 bases, stem 14 bp), CGTGTAATTACCTCCAGAGAGGTAATTACACG (structured_DNA) [hpDNA1] displayed a Kd of 85.7 nM.

B1: dsDNA probe (dsDNA)
DNA 1: CGTGTAATTACCTC
DNA 2: GAGGTAATTACACG
In the data set with EN2 (Engrailed-2) [4], B1 displayed a Kd of 95.2 nM.

Consider CGCAGTGTAATTACCTCGACCAGAAGGAGTCGAGGTAATTACACTGCG (structured_DNA) [hpDNA6], for which, in the data set with EN2 (Engrailed-2) [1] (label: FAM, loop 8 bases, stem 20 bp), the Kd turned out to be 61 nM.
